Reference: patent US20070298445, “Cancer Therapeutic” (published 2007)

Molecular target: ZNF306 (UniProt Q9BRR0 Q9BRR0:1-538)
Test: cell_activity; luciferase induction, duplicate tandem copies upstream of minimal tk promoter
Settings: tags: expression plasmid or cDNA in colon cancer cells

Sequence of ZNF306 (Q9BRR0 whole entry, one chain of several): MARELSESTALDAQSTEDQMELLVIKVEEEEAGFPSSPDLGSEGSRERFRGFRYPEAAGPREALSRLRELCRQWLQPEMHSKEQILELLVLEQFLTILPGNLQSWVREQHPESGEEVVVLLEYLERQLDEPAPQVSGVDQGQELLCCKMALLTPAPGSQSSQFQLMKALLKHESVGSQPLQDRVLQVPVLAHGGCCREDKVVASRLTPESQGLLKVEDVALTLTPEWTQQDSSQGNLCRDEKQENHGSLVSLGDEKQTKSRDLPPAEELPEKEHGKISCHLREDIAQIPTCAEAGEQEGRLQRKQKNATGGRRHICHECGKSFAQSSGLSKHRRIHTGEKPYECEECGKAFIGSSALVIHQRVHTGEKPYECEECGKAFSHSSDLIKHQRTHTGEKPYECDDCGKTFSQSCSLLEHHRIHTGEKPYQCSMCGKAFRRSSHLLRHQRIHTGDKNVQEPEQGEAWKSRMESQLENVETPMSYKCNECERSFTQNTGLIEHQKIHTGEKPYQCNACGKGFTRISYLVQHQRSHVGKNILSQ

B1: integrin beta4 intron 1 wt probe (dsDNA)
DNA 1: TGAGGGG
DNA 2: CCCCTCA
  activity: 6 fold
